Legend:
Assay in all cases: holdup assay
Parameters in all cases: key: below the threshold = too weak to quantify, mostly under pKd 3.1 to 4
[1] = biological target: ARHGEF12, Q9NZN5-2
[2] = biological target: GRIP2_3, Q9C0E4
[3] = biological target: T1, PARD3B_1, Q8TEW8
T1 sequence (Q8TEW8 196-299, limits assumed, looked up): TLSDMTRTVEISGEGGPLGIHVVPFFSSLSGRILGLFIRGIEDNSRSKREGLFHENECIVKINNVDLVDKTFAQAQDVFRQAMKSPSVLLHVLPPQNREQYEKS

[4] = biological target: PDZRN4_1, Q6ZMN7
[5] = biological target: Inadl_2, Q8NI35
Inadl_2, Q8NI35, sequence (Q8NI35 238-335): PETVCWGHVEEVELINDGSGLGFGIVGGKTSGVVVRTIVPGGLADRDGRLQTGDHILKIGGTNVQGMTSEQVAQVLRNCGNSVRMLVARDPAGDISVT

[6] = biological target: T2, LRRC7, Q96NW7
T2 sequence (Q96NW7 1440-1537, limits assumed, looked up): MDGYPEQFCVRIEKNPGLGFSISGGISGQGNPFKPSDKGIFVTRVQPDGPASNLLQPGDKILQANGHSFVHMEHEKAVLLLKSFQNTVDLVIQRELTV

[7] = biological target: PICK1, Q9NRD5
PICK1, Q9NRD5, sequence (Q9NRD5 17-115): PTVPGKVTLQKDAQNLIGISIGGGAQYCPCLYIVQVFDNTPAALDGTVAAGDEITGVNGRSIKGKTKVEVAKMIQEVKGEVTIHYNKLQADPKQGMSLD

[8] = biological target: GOPC, Q9HD26
[9] = biological target: T3, GRIP1_3, Q9Y3R0
T3 sequence (Q9Y3R0 247-346, limits assumed, looked up): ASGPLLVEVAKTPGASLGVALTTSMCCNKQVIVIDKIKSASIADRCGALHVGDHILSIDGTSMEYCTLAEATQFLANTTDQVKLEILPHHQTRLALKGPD

[10] = biological target: T4, PCLO, Q9Y6V0
T4 sequence (Q9Y6V0 4491-4600, limits assumed, looked up): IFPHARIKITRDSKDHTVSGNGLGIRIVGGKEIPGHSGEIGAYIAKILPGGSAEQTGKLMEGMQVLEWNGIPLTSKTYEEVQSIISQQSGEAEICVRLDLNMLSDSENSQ

[11] = biological target: Inadl_9, Q8NI35
Inadl_9, Q8NI35, sequence (Q8NI35 1530-1615): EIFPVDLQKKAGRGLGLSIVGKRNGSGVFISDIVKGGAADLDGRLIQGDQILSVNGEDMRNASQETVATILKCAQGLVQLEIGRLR

[12] = biological target: T5, GRIP1_2, Q9Y3R0
T5 sequence (Q9Y3R0 145-248, limits assumed, looked up): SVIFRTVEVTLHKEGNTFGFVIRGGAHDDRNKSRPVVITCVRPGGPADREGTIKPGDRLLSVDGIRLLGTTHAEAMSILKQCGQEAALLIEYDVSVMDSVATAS

[13] = biological target: NHERF2_2, Q15599
NHERF2_2, Q15599, sequence (Q15599 142-238): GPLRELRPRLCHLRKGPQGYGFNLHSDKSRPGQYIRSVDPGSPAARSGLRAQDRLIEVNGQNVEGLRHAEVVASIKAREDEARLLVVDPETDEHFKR

[14] = biological target: FRMPD2_2, Q68DX3
FRMPD2_2, Q68DX3, sequence (Q68DX3 944-1038): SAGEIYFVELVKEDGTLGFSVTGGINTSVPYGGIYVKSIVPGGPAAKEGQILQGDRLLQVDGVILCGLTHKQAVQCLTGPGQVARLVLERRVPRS

[15] = biological target: T6, APBA1_2, Q02410
T6 sequence (Q02410 742-832, limits assumed, looked up): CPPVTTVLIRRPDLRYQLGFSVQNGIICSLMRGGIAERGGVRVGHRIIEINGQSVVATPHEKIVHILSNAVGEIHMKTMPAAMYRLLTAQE

[16] = biological target: Inadl_8, Q8NI35
Inadl_8, Q8NI35, sequence (Q8NI35 1425-1530): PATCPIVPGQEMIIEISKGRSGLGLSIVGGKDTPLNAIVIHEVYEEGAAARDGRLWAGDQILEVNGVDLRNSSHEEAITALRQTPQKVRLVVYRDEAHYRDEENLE

[17] = biological target: DLG2_2, Q15700
DLG2_2, Q15700, sequence (Q15700 189-283): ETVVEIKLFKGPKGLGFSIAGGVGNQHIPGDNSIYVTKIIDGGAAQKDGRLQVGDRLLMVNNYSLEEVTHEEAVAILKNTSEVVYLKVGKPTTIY

[18] = biological target: DLG5_1, Q8TDM6
DLG5_1, Q8TDM6, sequence (Q8TDM6 617-713): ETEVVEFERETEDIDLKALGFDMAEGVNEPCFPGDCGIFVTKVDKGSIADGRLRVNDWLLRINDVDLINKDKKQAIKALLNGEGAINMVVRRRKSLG

[19] = biological target: T7, HTRA4, P83105
T7 sequence (P83105 378-476, limits assumed, looked up): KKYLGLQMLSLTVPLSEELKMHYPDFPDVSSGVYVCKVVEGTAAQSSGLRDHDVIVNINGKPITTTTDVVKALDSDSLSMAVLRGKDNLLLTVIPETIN

[20] = biological target: T8, TIAM2, Q8IVF5
T8 sequence (Q8IVF5 885-986, limits assumed, looked up): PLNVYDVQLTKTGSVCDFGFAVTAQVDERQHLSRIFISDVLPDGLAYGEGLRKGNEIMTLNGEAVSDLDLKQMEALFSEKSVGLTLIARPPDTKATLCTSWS

[21] = biological target: T9, LIN7A, O14910
T9 sequence (O14910 103-200, limits assumed, looked up): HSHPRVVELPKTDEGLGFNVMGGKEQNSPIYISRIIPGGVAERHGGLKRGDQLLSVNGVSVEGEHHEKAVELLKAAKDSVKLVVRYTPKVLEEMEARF

[22] = biological target: T10, GRIP1_4, Q9Y3R0
T10 sequence (Q9Y3R0 467-571, limits assumed, looked up): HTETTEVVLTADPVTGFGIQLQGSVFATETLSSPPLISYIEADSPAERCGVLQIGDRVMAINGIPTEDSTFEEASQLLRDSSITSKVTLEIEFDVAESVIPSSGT

[23] = biological target: T11, APBA1_1, Q02410
T11 sequence (Q02410 651-752, limits assumed, looked up): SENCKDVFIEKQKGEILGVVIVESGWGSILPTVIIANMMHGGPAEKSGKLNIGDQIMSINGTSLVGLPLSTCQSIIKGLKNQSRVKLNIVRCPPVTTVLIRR

[24] = biological target: NOS1, P29475
NOS1, P29475, sequence (P29475 9-101): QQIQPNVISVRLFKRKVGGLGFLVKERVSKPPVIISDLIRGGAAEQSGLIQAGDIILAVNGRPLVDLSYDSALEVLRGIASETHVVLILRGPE

[25] = biological target: MAGI2_2, Q86UL8
MAGI2_2, Q86UL8, sequence (Q86UL8 410-522): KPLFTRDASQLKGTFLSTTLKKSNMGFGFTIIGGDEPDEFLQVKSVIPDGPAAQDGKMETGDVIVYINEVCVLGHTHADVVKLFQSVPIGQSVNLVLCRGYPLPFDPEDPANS

[26] = biological target: PARD3_3, Q8TEW0
PARD3_3, Q8TEW0, sequence (Q8TEW0 582-685): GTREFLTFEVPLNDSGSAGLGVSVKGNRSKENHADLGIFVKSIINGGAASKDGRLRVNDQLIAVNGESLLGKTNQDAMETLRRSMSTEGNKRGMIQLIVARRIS

[27] = plain residues with an end cap or a label only (N-terminal biotin on a linker: ahx)
[28] = plain residues with an end cap or a label only (N-terminal biotin on a linker: ado-ado)

Measured: pKd

ARHGEF12, Q9NZN5-2, sequence (Q9NZN5 other isoform, or with tags, fused parts or gaps): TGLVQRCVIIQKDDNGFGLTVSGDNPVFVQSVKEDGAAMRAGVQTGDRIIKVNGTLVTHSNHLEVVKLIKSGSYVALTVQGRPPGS
GRIP2_3, Q9C0E4, sequence (Q9C0E4 238-339): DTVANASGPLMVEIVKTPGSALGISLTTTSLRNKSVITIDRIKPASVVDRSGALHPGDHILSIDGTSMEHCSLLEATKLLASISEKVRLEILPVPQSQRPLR
PDZRN4_1, Q6ZMN7, sequence (Q6ZMN7 213-318): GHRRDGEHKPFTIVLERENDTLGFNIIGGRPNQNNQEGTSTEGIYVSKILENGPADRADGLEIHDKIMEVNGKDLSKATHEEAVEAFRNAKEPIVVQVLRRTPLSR

QNTDDVQTSF [ACE2, Q9BYF1]
below the threshold: [2]; [27] | [4]; [27] | [5]; [27] | [6]; [27] | [7]; [27] | [8]; [27] | [9]; [27] | [10]; [27] | [11]; [27] | [12]; [27] | [14]; [27] | [15]; [27] | [16]; [27] | [17]; [27] | [18]; [27] | [19]; [27] | [20]; [27] | [21]; [27] | [22]; [27] | [23]; [27] | [24]; [27] | [25]; [27] | [26]; [27]
4.29: [13]; [27]
3.65: [1]; [27]
3.82: [3]; [27]

KKMLQRRTLL [OR8G1, Q15617]
3.55: [16]; [28]
3.61: [13]; [28]
3.89: [8]; [28]
below the threshold: [2]; [28] | [4]; [28] | [5]; [28] | [6]; [28] | [9]; [28] | [10]; [28] | [11]; [28] | [12]; [28] | [14]; [28] | [17]; [28] | [18]; [28] | [19]; [28] | [20]; [28] | [21]; [28] | [22]; [28] | [23]; [28] | [26]; [28]
4.47: [3]; [28]
3.92: [24]; [28]
4.51: [1]; [28]
4.44: [25]; [28]
3.99: [7]; [28]
3.52: [15]; [28]

QSGLYESEEL [MYOT, Q9UBF9]
4.04: [13]; [28]
3.86: [3]; [28]
4.08: [25]; [28]
below the threshold: [2]; [28] | [4]; [28] | [5]; [28] | [6]; [28] | [7]; [28] | [8]; [28] | [9]; [28] | [10]; [28] | [11]; [28] | [12]; [28] | [14]; [28] | [15]; [28] | [16]; [28] | [17]; [28] | [18]; [28] | [21]; [28] | [22]; [28] | [23]; [28] | [24]; [28]
4.19: [20]; [28]
3.59: [26]; [28]
3.63: [1]; [28]
3.69: [19]; [28]

PYSESDDDWC [CACNA1A, O00555]
3.74: [13]; [28]
4.06: [20]; [28]
3.48: [23]; [28] | [24]; [28]
3.89: [26]; [28]
3.61: [3]; [28]
3.62: [12]; [28]
below the threshold: [1]; [28] | [2]; [28] | [4]; [28] | [5]; [28] | [6]; [28] | [7]; [28] | [8]; [28] | [9]; [28] | [10]; [28] | [11]; [28] | [14]; [28] | [15]; [28] | [16]; [28] | [17]; [28] | [18]; [28] | [19]; [28] | [21]; [28] | [22]; [28] | [25]; [28]

AQRARSPSDV [GPR12, P47775]
4.05: [20]; [28]
below the threshold: [1]; [28] | [2]; [28] | [3]; [28] | [4]; [28] | [5]; [28] | [6]; [28] | [8]; [28] | [9]; [28] | [10]; [28] | [11]; [28] | [12]; [28] | [13]; [28] | [14]; [28] | [18]; [28] | [19]; [28] | [21]; [28] | [22]; [28] | [23]; [28] | [26]; [28]
3.75: [24]; [28]
4.14: [15]; [28]
3.65: [25]; [28]
3.49: [17]; [28]
3.99: [7]; [28]
4.6: [16]; [28]

Reference: publication PMC9482650, “Quantitative fragmentomics allow affinity mapping of interactomes” (Nature Communications, 2022)
